The values that follow come from patent publication US20260209349A1 (IMBIORAY HANGZHOU BIOMEDICINE, published 2026).

One assay has as its target T1, Human CLL1 (human, UniProt Q5QGZ9 65-265, limits assumed).
T1 construct: also called C-type lectin-like molecule 1
T1 sequence (looked up): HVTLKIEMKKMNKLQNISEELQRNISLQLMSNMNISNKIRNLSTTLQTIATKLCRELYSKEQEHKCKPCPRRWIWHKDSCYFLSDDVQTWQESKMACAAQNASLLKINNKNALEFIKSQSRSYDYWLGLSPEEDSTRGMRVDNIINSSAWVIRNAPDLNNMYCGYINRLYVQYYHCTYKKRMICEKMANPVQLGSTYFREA
The assay is described as follows: BLI, affinity to target. A general note: BLI is a label-free optical method that tracks binding on a fibre tip over time.

The target of another assay is Human CD33 (human, UniProt P20138 18-259). In words: BLI, affinity to target.
Chain of Human CD33 (P20138 18-259 limits assumed): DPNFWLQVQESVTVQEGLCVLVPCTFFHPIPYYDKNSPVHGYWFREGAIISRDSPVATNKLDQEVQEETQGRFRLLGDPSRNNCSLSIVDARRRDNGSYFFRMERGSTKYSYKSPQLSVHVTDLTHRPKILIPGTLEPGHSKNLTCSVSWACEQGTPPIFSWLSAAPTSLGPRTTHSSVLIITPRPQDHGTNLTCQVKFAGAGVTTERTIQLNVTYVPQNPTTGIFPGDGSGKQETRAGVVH

B1: Anti-CD33-CLL1 bispecific antibody (bispecific antibody, human IgG1, kappa)
heavy 1: not shown
light 1: not shown
heavy 2: not shown
light 2: DIQMTQSPSSLSASVGDRVTITCRASESVDNYGISFMNWFQQKPGKAPKLLIYAASNQGSGVPSRFSGSGSGTDFTLTISSLQPDDFATYYCQQSKEVPWTFGQGTKVEIKRTVAAPSVFIFPPSDEQLKSGTASVVCLLNNFYPREAKVQWKVDNALQSGNSQESVTEQDSKDSTYSLSSTLTLSKADYEKHKVYACEVTHQGLSSPVTKSFNRGEC
notes: Copies '1' follow from this arm exchange; also called anti-CD33/CLL1 antibody
On to B1, for which the Kd with Human CLL1 worked out at 26 nM; in the assay with Human CD33 it was 5.5 nM.

The Kd is the free concentration of one partner at which half of the binding sites on the other are occupied at equilibrium, for simple one-to-one binding.
